Measured values: the DeepSol protein solubility set

Assay: soluble on expression in E. coli; label from the status in PepcDB or PDB records

Question: For “MSLRPVPSGQDPIKVVHYSDIHVDQLYTEGSNAKCNKPICCRQVKIIRHTHKSWTDFSRPFTENDEPGKTDSPAGPFGEHTCDSPVSLEHSMYQAIKEIVPDASFTIFTGDVVDHSIWNTTWDYNKHQIIESYENMDKHLGIVYGTAGNHESHPTNAYQPSSIGGASSWIYDLLAGAWSRWIGHEAASKAAQIGAYSTKFPHGNLRVISLNTNLYYRGNFWLFQRKMIRDPSKQFDWLIEELHAAEKAGERVYIIGHMPPGDRNAFHDQSNYLNQIVNRYSSTIAAMFFGHTHRDHFQITYSEAPKKSFSNALLTSYVGPSLTPTSGMPSFRVYDVDPITFAVLDATTYSADMNSPTYQTQGPVWKKYYSAKETYGEGHHHHHH”, which “soluble on expression in E. coli” value is on record?
Answer: not soluble

Question: With “MFKKLKASLGIGSAKVDTILDEMSVFQGATLKGHVHIKGGDVEQQIDAITIKLNTEMKVEVDDSVSYQTFTIDQLKAVDPFVIQPNEEKQVPFELKLHDETPITAVSALKNQCNVWVETTLDIDFAIDPRDRDYIEVKPLPVASRVIRAIEQAGFTMVKADVEKGFLRGGSFASRSGIYQELEFRNSGFVSSKEIELSFILEGQVMHCLAEIDRSLSFSGDQYRSFTLPINATDAQVAAAVAPTLSL” as the sequence, how does the “soluble on expression in E. coli” value read?
Answer: not soluble

Question: For “MKAMHVAQPAVVLASSRGIASFVCEYASPGKATEVRVTVLRQADSQVTEVCAATYMMGNELTFLDDSICTGTSSGNQVNLTIQGLRAMDTGLYICKVELMYPPPYYLGIGNGTQIYVIDPEPSPDSDLVPR”, which “soluble on expression in E. coli” value is on record?
Answer: soluble

Question: With “MGSDKIHHHHHHMKDNFFGREYDIAPAGGETGQAFVATHEDEKFFLKRNSSPFLAALSVENIVPKLVWTRRVENGDVITAQKWVNCHILTREEMVGPRVAKLLAKIHHSENLQHMLAKIENCYFSADQLLSLIKVNTKANNELSKEIIAAIRYLEQNLSAAQTNDYVVCHGDVNHNNWIISEENELFLVDWDGAMLADPANDIGMILYQYIPRKDWVSWLSNYGTTLTEELHRKLKWYTICQTVMQLITEHSNEANERAKQIFQNAIEDDEV” as the sequence, how does the “soluble on expression in E. coli” value read?
Answer: not soluble

Question: Which “soluble on expression in E. coli” value does the source give for “GSSHHHHHHSSGLVPRGSHMGSIIDAAAAAGPVVLMETAFRKAVESRQIPGAVIMARDASGNLNYTRCFGARTVRRDENNQLPPLQVDTPCRLASATKLLTTIMVLQCMERGLVDLDETVDRLLPDLSAMPVLEGFDDAGNARLRERRGKITLRHLLTHTSGLSYVFLHPLLREYMAQGYLQSAEKFGIQSRLAPPAVNDPGAEWIYGTNLDWAGKLVERATGLDLEQYLQENICAPLGITDMTFKLQQRPDMLARRADQTHRNSADGRLRYDDSVYFRADGEECFGGQGVFSSPGSYMKVLHSLLKRDGLLLQPQTVDLMFQPALEPRLEEQMNQHMDASPHINYGGPMPMVLRRSFGLGGIIALEDLDGENWRRKGSLTFGGGPNIVWQIDPKAGLCTLAFFQLEPWNDPVCRDLTRTFEHAIYAQYQQG” here?
Answer: soluble

Question: For “MNEFEIGLMSYLGREKLEKLGKVKVGIAGAGGLGSNCALHLVRSGFKNLKIVDFDVVEPSNLNRQFFFLDQLGRPKVLALKENLARINPDVMIEAIQQKVDRNNAKQLFDDCDAVVEAFDKVECKTMMAEAFASSGKFFVCASGLAGWGNSDEIRIRKVHDRFYIVGDFVTGVKEGIPPISPRVNIAAAKQADLILSFFLDDADNTVNVNCQEGLEHHHHHH”, which “soluble on expression in E. coli” value is on record?
Answer: soluble

Question: With “MVFVKTLHRTLFLEVAANEDVLSIKQKIEAAEGIPAEEQRLCYAGRQLEDSDCGIDSEATIYVNLELLGGAKKRKKKVYTTPKKNKRKPKKVKLAVLKYYKIDENGKITRLRKECQQPSCGGGVFMAQHANRHYCGRCHDTLVVDTATAAATSGEKGGKKGKK” as the sequence, how does the “soluble on expression in E. coli” value read?
Answer: not soluble

Question: For “VRQLDSDGFAALMESIPHAISVHDRERNLVFSNPACAALIGYDTAEFADLEHEQLFHPDDAELWGTMLARVLGTESTSATAHLRIRHREGHWIWVRVAASTFTAGAERLVALVLQDESDTIWGNPTAARQPIR”, which “soluble on expression in E. coli” value is on record?
Answer: not soluble

Question: With “MGSDKIHHHHHHMSQATAKVNREVQAFLQDLKGKTIDHVFFVACGGSSAIMYPSKYVFDRESKSINSDLYSANEFIQRNPVQLGEKSLVILCSHSGNTPETVKAAAFARGKGALTIAMTFKPESPLAQEAQYVAQYDWGDEALAINTNYGVLYQIVFGTLQVLENNTKFEQAIEGLDQLQAVYEKALKQEADNAKQFAKAHEKESIIYTMASGANYGVAYSYSICILMEMQWIHSHAIHAGEYFHGPFEIIDESVPFIILLGLDETRPLEERALTFSKKYGKKLTVLDAASYDFTAIDDSVKGYLAPLVLNRVLRSYADELAEERNHPLSHRRYMWKVEY” as the sequence, how does the “soluble on expression in E. coli” value read?
Answer: not soluble

Question: With “MAHHHHHHMSTNISPNIKKGGVTAADLMQLQGAALRLRSQCTQREADNRRLTQKLREYEEQLFFLRANELILRKQVSVWSSYHRLFAQPLYEARLAVERYKHEAHQSLVHEMQVDRQRRSSLANAANEKRERERAGLQARLRQLQELQDEKRKKNEELELRLRRASEESLRAQKQASKLKDELAYCMDRLEESERERERVKRHLSEHEAALLKARHNVAGMGHFEEEIRSRDTVIAQLQRTVRELNTIMAQQSASRLEEANGENTPPQHEAEEKKLAASPQRLLNDSCDSEWVLKQSIGWFRSKMEREMKPSTPRRQMFEPCSSSAHPAPSLSSFSWMEGRCDSGDVDLQEFLSRELQAPLL” as the sequence, how does the “soluble on expression in E. coli” value read?
Answer: not soluble

Question: Which “soluble on expression in E. coli” value does the source give for “MGSDKIHHHHHHMVKLKPKGPFTRIPRATTIFGAISNAIRLLYGRKEVEKFIAGFINDDAKITSAFPYDGETYFLPKPLSVDLVVKTLFETKKEDVKKVKKKDYIPLESFEKALRLEEFEVKELPYKVIELPKVSLDRVSNDSSLYFWDLVTFKENSGLYFLYDGSNKLFEKYIVPAMRLLEDQGIGGKGTWGYGLFEVEIEELEIEEPRENSYVTLSPFVPENETSLILWKIVKLGGWSQGKRRPKIPMVVEGSLSREDRGKMITLDLSLSYPVYVYARSFLVRASLPEEAVGHV” here?
Answer: not soluble

Question: With “MGSDKIHHHHHHMKPEIALNLWQLLWQEYSARVNHARTYQQMITTAGGTVANDHIAFRSLRLLVDSPQGEVNLGIDYLAQFAEALGYVAAGEYNFAQTHLYARYYRHPQQEEFNLPKLFISELIVDELPANIAQLISKTVSAIPHQLASPVTLLKKDAEIETIAKQLQQVFTRPWLPPRRSVVEEVNQVTQYGAWVLLHGYGVNHFTGYVNGQNTPEYPDIDTTASGLAHLGVPMKAEIEGNVACGLRQTATQAVTEMVTVLDDNSGVEIQIPWTYAYYEIAQRYPVEVEPGKQILFDAFLGSNAQQLFEMTRLSK” as the sequence, how does the “soluble on expression in E. coli” value read?
Answer: not soluble

Question: For “MSMKGKETMSNEKIVVGKFGATYGIRGWLKVFSYTDNAESIFDYSPWYINQKGKWVEYKVESWKRHNKGMVAKLEGMDVREDAHLMTNFEIAIDPAVLPELSEDEFYWRELFGMHVVTTKGYDLGVVTDMLETGSNDVLVVKANLKDAFGQKERLIPFLEEQVIIKVDREAQRIEVDWDPGFLEHHHHHH”, which “soluble on expression in E. coli” value is on record?
Answer: soluble

Question: Which “soluble on expression in E. coli” value does the source give for “MSLSEAVERQTLTIANSKAWKPYSYLDEQGQPSGILIDFWLAFGEANHVDIEFQLMDWNDSLEAVKLGKSDVQAGLIRSASRLAYLDFAEPLLTIDTQLYVHRTLLGDKLDTLLSGAINVSLGVVKGGFEQEFMQREYPQLKLIEYANNELMMSAAKRRELDGFVADTQVANFYIVVSNGAKDFTPVKFLYSEELRPAVAKGNRDLLEQVEQGFAQLSSNEKNRILSRWVHIETIYPRYLMEGHHHHHH” here?
Answer: soluble

Question: Which “soluble on expression in E. coli” value does the source give for “MGSDKIHHHHHHAGELRERVYLQTDKQFYLSGELVWMKFIATDLDQRLSDVSKVGYVELLDSASAVVQARLVLEKGVGDGCLQLPSTLPTGNYRLVAYTRYMRNEGEEVFFEKPLAVVNTFVTNETLLTDTLLPAYSFTRREDPVSVSPDRMTYDTRSGGEIRINGLPPDLQTLSVSIAGIDLYKPSARSGIVDWKQSMPTTGSSPADRKFLAEYEGPILTGKVIDLSTGEPSSKEAVRPLLGFSGGEIRLFGGQLGPAGEVTFFTRHISGTHEIVTVALSPSSSRYRVDIESPYATHPEKELPALRLNPAWQDELVKRSVGLQVLHAYRSDSLVREKAEKPWFQWQPDWSYLLDEYTRFTTMEEVVIEFIPGLRFRKMDGVRRLAVLTEERIGYTIGNSLVLLDGIPITDHEIIFKYDPLKIRKIDVYKGKYVFGGQIFDGIASFSSYEHNYPGLVVDNSTQFFDYEGTQAQRIFYMPAYRTEAEKRSPVPDFRHTLLWRPDIRTNGESSISIPFTTSDLTGDFTITIEGLTQTGEALYATEQFQVK” here?
Answer: not soluble

Question: For “MLLAFKAKIALAALAGFVTPLAVTPLVIDHGDAALDGQQAMVEIAPGAMDYRLPGEFTRDGRQIEAPRTKLQFDRPLSIMLHQVSAADYQRCVDDGACHPMPAATAVRADRPAVQVSWQDATTYADWLSRKTGAHYRLPTDAEWAFAAGSKFKDDGLALDSDDPSVRWIARYERESDRDNLSAALRSFGGFGANERGLLDLSGNVWEWTTTCFDRSAIDAAGRPQAQTANCGVRVAEGLHRAYVSDFIRDAKAGGCSAGLPPIHLGFRLVREPAAPLARLRGQLDRVVTAAGILEHHHHHH”, which “soluble on expression in E. coli” value is on record?
Answer: not soluble

Question: With “MKTFPVSIVTPDGPVYEKEVEMVSVKAESGEMGILPGHIPTVAPLKISAVRLKNGGHTDYVAVSGGFIEVRPDKVTVLSSSAEEANHIDIHRANEAKRRAEQRMQDKQAHVDFKRAEMALQRAVNRLNVSDMK” as the sequence, how does the “soluble on expression in E. coli” value read?
Answer: not soluble

Question: With “MGSDKIHHHHHHMKVVIVGNGPGGVELAKQLSEEHEVTIVERETVPYYTKPMLSHYVAGLAEEKSLFPYPIDWYEKKGIKLLLGTTAKRIDAEKKVLETDRGTLEYDVLVLATGAKPRTLKIPGWERMYTLRTIEDAKRLKGAVEREKDLLIIGGGFIGLEIAGNLSKQGIKVKVVEKMTRLMGLDEELTERIKGELEKHGVEFYLGRDVERIENDVLVTDKEEIPARVILCSIGIVPEVSLAKESGLDVNRGILVDKTFRTSKPDIYAIGDCAEHEGIICGTAKAAMAHAKVLANTLKGIPDEYDFHFRSSYFKFGDFPIAIVGELTDRGEWIDSETKSFYRDEKIVGVVVLSDVRKAREWEERLRSTR” as the sequence, how does the “soluble on expression in E. coli” value read?
Answer: not soluble

Question: For “GMETTHYSIAQHFSSGDFPAVYACFNDIIEWNIIGNQVVKGKADVIDFCNKMLPEMKGAVLTNDNVIQNENQIVIEGKCRYFDAEGKEAFVSYCDIYRFENDTIKTITSYCI”, which “soluble on expression in E. coli” value is on record?
Answer: soluble

Question: Which “soluble on expression in E. coli” value does the source give for “GHHHHHHAIAENLYFQSMEYGHHARPDSKRPLDEGSPAAAGLTSKKANEALTRNRELTTVLVKNLPKSYNQNKVYKYFKHCGPIIHVDVADSLKKNFRFARIEFARYDGALAAITKTHKVVGQNEIIVSHLTECTLWMTNFPPSYTQRNIRDLLQDINVVALSIRLPSLRFNTSRRFAYIDVTSKEDARYCVEKLNGLKIEGYTLVTKVSNPLEKSKRTDSATLEGREIMIRNLSTELLDENLLRESFEGFGSIEKINIPAGQKEHSFNNCCAFMVFENKDSAERALQMNRSLLGNREISVSLADKKP” here?
Answer: soluble

Question: Which “soluble on expression in E. coli” value does the source give for “MAFEFKLPDIGEGIHEGEIVKWFVKPGDEVNEDDVLCEVQNDKAVVEIPSPVKGKVLEILVPEGTVATVGQTLITLDAPGYENMTFKGQEQEEAKKEEKTETVSKEEKVDAVAPNAPAAEAEAGPNRRVIAMPSVRKYAREKGVDIRLVQGTGKNGRVLKEDIDAFLAGGAKPAPAAAEEKAAPAAAKPATTEGEFPETREKMSGIRRAIAKAMVHSKHTAPHVTLMDEADVTKLVAHRKKFKAIAAEKGIKLTFLPYVVKALVSALREYPVLNTSIDDETEEIIQKHYYNIGIAADTDRGLLVPVIKHADRKPIFALAQEINELAEKARDGKLTPGEMKGASCTITNIGSAGGQWFTPVINHPEVAILGIGRIAEKPIVRDGEIVAAPMLALSLSFDHRMIDGATAQKALNHIKRLLSDPELLLMEA” here?
Answer: soluble
